Measured values as given in patent publication US20240309103A1 (Regeneron, published 2024).

T1: mouse NPR1 extracellular domain expressed with a C-terminal mouse IgG2a (mNPR1-mFc) (mouse)
T1 chain: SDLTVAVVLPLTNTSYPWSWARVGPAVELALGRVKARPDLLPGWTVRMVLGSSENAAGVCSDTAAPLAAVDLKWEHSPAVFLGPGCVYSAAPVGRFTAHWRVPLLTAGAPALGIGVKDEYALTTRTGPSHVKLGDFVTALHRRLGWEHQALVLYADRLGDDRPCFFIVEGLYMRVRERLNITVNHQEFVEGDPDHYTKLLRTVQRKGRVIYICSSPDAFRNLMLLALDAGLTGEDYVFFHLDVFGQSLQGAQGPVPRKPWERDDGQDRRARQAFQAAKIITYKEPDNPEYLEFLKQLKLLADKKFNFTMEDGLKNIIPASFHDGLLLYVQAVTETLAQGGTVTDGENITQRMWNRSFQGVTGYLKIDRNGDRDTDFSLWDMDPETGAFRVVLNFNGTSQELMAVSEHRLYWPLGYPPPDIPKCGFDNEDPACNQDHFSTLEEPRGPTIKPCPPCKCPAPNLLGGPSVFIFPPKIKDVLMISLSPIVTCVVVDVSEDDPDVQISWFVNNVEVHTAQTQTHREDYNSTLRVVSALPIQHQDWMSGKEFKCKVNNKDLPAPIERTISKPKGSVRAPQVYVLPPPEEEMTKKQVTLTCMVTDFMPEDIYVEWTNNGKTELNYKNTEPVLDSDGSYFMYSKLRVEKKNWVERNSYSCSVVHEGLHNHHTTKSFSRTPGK

T2: human NPR1 on HEK293/hNPR1.myc.DDK cells (no hANP added) (human, UniProt P16066 33-1061)
T2 sequence (looked up): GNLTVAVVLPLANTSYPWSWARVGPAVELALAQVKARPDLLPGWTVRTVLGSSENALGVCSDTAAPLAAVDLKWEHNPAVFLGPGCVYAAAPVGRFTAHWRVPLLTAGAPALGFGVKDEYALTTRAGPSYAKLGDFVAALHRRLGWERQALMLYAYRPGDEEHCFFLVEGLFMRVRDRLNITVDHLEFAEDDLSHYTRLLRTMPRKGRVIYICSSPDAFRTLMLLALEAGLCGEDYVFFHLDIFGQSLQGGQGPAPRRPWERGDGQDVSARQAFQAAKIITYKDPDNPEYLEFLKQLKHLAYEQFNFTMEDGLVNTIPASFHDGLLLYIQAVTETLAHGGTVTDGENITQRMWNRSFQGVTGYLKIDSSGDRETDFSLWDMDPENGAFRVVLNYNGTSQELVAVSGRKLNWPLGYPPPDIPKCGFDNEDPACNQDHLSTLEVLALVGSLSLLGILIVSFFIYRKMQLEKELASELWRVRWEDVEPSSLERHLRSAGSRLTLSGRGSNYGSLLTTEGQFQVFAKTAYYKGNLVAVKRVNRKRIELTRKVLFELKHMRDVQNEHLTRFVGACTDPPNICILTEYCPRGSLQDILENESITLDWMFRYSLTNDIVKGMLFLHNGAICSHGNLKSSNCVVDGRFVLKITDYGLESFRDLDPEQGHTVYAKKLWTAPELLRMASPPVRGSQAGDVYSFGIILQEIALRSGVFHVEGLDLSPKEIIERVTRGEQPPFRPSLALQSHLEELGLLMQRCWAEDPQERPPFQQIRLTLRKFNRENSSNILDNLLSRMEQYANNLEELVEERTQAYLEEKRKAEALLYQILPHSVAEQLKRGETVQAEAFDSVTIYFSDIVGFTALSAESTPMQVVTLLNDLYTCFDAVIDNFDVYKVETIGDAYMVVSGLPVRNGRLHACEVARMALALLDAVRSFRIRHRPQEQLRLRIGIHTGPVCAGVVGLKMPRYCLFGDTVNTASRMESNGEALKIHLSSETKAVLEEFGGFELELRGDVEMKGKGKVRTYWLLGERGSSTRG

B1: mAb22035 (antibody, V domains shown)
VH: EVQLVESGGGLVQPGRSLRLSCAASGFTFDDYAMHWVRQAPGKGLEWVSGISWNSGTIGYADSVKGRFTMSRDNAKNSLYLQMNSLRPEDTALYYCAKDMGVSLALWGAFDIWGQGTMVTVSS
VL: DIQMTQSPSSLSASVGDKVTITCRASQNIRTYLNWYQQKPGKAPKVLISTASSLQSGVPSRFSGSGSGTDFTLTISSLQPEDFAVFYCQQSFGIPRTFGQGTKVEIK
B2: mAb22033 (antibody, V domains shown)
VH: QVQLVQSGAEVKKPGASVTVSCKASGYTFTDYYMHWVRQAPGQGLEWMGWIKPNSGGTNSAQRFQGRITMTWDTSISTAYMELSRLRSDDTAVYYCSRGGPVMNYYYYYGMDVWGQGTTVTVSS
VL: NIQMTQSPSSLSASVGDRVTITCRASQSIDSYLNWYQQKPGKAPKLLIYVASSLQSGVPSRFSGSGSGKDFTLTISSLQPEDFATYYCQQSYSIPTFGQGTRLEIK

Assays:
[1] = target: T1, mouse NPR1 extracellular domain …; assay: SPR, Tables 21 to 26
In short: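 Read-out is KD from real-time SPR (Biacore 4000). Purified mAbs sat on an anti-human Fc capture surface (mouse mAb or goat anti-Fcγ polyclonal) on CM5. Runs used HBS-ET: 10 mM HEPES, 150 mM NaCl, 3 mM EDTA, 0.05% Tween-20, pH 7.4.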

[2] = target: T2, human NPR1 on HEK293/hNPR1.myc.DDK …; assay: cell-based or functional assay

Binder | binding result [1] | EC50 of Ca2+ flux activation, Expt I [2] [nM] | EC50 of Ca2+ flux activation, Expt II [2] [nM]
B1 | no binding | 83.7 to 384 | > 200
B2 | no binding | 83.7 to 384 | 41.6
